This assay deals with human ACE2 (angiotensin-converting enzyme 2) (human, UniProt Q9BYF1 18-805). The experiment in a line: cell-based or functional assay.

Numbered stars: 1 amine (or outer) side, 2 acyl side, 3 side chain; on linkers, the order of the positions; unused ones are H or OH. Bridge positions count the residues as written; N and C are the ends. Square brackets hold non-standard residues; d marks the D form. Ends that are not written are not given here. * marks the point of attachment. TATA = O=C(CC[*:1])N1CN(C(=O)CC[*:2])CN(C(=O)CC[*:3])C1; hArg = N=C(N)NCCCC[C@H](N)C(=O)O; Agb = N=C(N)NCC[C@H](N)C(=O)O; Pent4ynoyl = C#CCCC(=O)*

Sequence of human ACE2 (angiotensin-converting enzyme 2) (Q9BYF1 18-805): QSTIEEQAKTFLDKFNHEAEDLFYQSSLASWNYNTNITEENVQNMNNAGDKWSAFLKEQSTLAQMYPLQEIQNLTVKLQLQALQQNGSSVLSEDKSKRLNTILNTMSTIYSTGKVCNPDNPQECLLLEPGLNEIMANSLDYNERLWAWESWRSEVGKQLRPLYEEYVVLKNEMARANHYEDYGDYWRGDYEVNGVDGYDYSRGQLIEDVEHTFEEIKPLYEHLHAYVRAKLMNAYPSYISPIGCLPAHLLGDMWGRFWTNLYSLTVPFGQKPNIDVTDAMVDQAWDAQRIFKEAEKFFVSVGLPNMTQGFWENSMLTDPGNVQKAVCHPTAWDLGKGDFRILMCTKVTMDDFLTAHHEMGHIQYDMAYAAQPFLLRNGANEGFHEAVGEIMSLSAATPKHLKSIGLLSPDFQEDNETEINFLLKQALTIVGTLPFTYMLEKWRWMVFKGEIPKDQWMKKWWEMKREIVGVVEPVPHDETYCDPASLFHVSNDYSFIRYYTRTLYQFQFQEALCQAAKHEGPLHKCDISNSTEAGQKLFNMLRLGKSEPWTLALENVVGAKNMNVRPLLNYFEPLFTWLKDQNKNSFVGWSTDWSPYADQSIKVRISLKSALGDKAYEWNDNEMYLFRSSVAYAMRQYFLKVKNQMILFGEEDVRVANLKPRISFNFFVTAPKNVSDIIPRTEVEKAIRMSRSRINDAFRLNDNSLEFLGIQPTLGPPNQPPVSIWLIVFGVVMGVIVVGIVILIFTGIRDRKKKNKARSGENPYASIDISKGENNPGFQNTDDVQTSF

For ACNAVLCSWARANSFCA (linker 2-7-16 via TATA) [BCY15429], the “Pseudoviral Neutralisation Assay, Geomean IC50” value (shortened to “Pseudoviral Neutralisation Assay”) was determined as 1280 nM.

B1: BCY17346 (peptide)
peptide: ACNAVLCSWARANSFCA
modifications: linker 2-7-16 via TATA; also: trimer: each monomer C-terminus attached to hinge B (PEG23)
Take B1: the “Pseudoviral Neutralisation Assay” value amounted to 12 nM.

B2: BCY17345 (peptide)
peptide: ACNAVLCSWARANSFCA
modifications: linker 2-7-16 via TATA; also: dimer: each monomer attached at C-terminus to central hinge A (PEG23)
In the case of B2, the “Pseudoviral Neutralisation Assay” value came out at 6.96 nM.

B3: BCY19071 (peptide)
peptide: Ac-CNSYTCYIKHILG[Agb]C
modifications: linker 1-6-15 via TATA; also: dimer: each monomer attached at C-terminus to central hinge A (PEG23)
Regarding B3, the “Pseudoviral Neutralisation Assay” value was 24 nM.

B4: BCY19147 (peptide)
peptide: Ac-CNAVLCSWA[hArg]ANSFCK(Pent4ynoyl)
modifications: linker 1-6-15 via TATA; also: trimer: each monomer attached at C-terminus to central hinge B (PEG23)
Regarding B4, the “Pseudoviral Neutralisation Assay” value was found to be 17.7 nM.

B5: BCY19148 (peptide)
peptide: Ac-CNAVLCSWA[hArg]ANSFCK(Pent4ynoyl)
modifications: linker 1-6-15 via TATA; also: tetramer: each monomer attached at C-terminus to central hinge C (PEG23)
For the molecule B5, the “Pseudoviral Neutralisation Assay” value was found to be 10.1 nM.

B6: BCY17347 (peptide)
peptide: ACNAVLCSWARANSFCA
modifications: linker 2-7-16 via TATA; also: tetramer: each monomer attached at its C-terminus to central hinge moiety C (PEG23), further groups not given here
As to B6, the “Pseudoviral Neutralisation Assay” value came to 3.75 nM.
